# Experimental data reported in US20240409643A1, “ANTI-NMDAR2B ANTIBODIES, ANTIBODY-DRUG CONJUGATES, AND CHIMERIC ANTIGEN RECEPTORS, AND COMPOSITIONS AND METHODS OF USE” (THE TRUSTEES OF DARTMOUTH COLLEGE, priority 2021, published 2024).
# Where a chain is given by its changes, count along the chain named. “Also recorded” adds a separate entry of the source. Ends that are not written are not given here. * marks the point of attachment. 125I = [125I]*
# T1: NMDAR2B immunogen peptide, free (YKDAHEKDDF-amide) (human)
# T1 construct: Free form: no radiolabel and no further conjugation; also called free NMDAR2B immunogen peptide; free peptide
# T1 peptide: YKDAHEKDDF-NH2
# T2: Biotinylated NMDAR2B immunogen peptide (human, also: biotinylated, site not given here)
# T2 construct: also called biotinylated peptide
# T2 peptide: YKDAHEKDDF-NH2
# T3: 125I-labeled NMDAR2B immunogen peptide (human)
# T3 construct: also called ^125I-labeled (radiolabel on the N-terminal tyrosine) NMDAR2B immunogen peptide
# T3 peptide: Y(125I)KDAHEKDDF-NH2
# B1: Fab10 (Fab, V domains shown)
# VH: EVQLVESGGGLVQPGGSLRLSCAASGFNLYSSYMHWVRQAPGKGLEWVASISSSYGYTYYADSVKGRFTISADTSKNTAYLQMNSLRAEDTAVYYCARTVRGSKKPYFSGWAMDYWGQGTLVTVSS
# VL: DIQMTQSPSSLSASVGDRVTITCRASQSVSSAVAWYQQKPGKAPKLLIYSASSLYSGVPSRFSGSRSGTDFTLTISSLQPEDFATYYCQQGSYLITFGQGTKVEIK
# notes: also called Ab10 (IgG form with the same VH and VL)
# B2: Fab6 (Fab, V domains shown)
# VH: B1 VH with L29I, M34I
# VL: B1 VL with S92G, Y93S
# notes: also called Ab6 (IgG form with the same VH and VL)
# B3: Fab7 (Fab, V domains shown)
# VH: B1 VH with L29F, Y30S, Y33S, M34I
# VL: B1 VL with Y93H
# notes: also called Ab7 (IgG form with the same VH and VL)
# B4: Fab5 (Fab, V domains shown)
# VH: B1 VH with S52Y, G56S, Y57S
# VL: B1 VL with S92A, Y93G
# notes: also called Ab5 (IgG form with the same VH and VL)
# B5: Fab8 (Fab, V domains shown)
# VH: B1 VH with L29I, S31Y
# VL: B1 VL with G91A
# notes: also called Ab8 (IgG form with the same VH and VL)
# B6: Fab9 (Fab, V domains shown)
# VH: EVQLVESGGGLVQPGGSLRLSCAASGFNLSYSSMHWVRQAPGKGLEWVASISPYSGSTYYADSVKGRFTISADTSKNTAYLQMNSLRAEDTAVYYCARYYWYYYYGFDYWGQGTLVTVSS
# VL: DIQMTQSPSSLSASVGDRVTITCRASQSVSSAVAWYQQKPGKAPKLLIYSASSLYSGVPSRFSGSRSGTDFTLTISSLQPEDFATYYCQQYVGYGSPITFGQGTKVEIK
# notes: also called Ab9 (IgG form with the same VH and VL)
# B7: Fab4 (Fab, V domains shown)
# VH: EVQLVESGGGLVQPGGSLRLSCAASGFNLYYYSIHWVRQAPGKGLEWVAYISSYYGYTYYADSVKGRFTISADTSKNTAYLQMNSLRAEDTAVYYCARYYPGGWHAFDYWGQGTLVTVSS
# VL: B6 VL with V92Y, S96Y
# notes: also called Ab4 (IgG form with the same VH and VL)
# What was measured:
# NCI H82 cells [1] = experiment: In vivo treatment of NCI H82 tumors in nu/nu mice with ifenprodil
# Method: (§1) Anti-NMDA receptor agent: ifenprodil was used as an exemplary NMDA receptor antagonist
# Mouse treatment: Male nu/nu mice were injected subcutaneously with NCI H82 cells (about 10^7 cells/mouse). Tumors became obvious after 2-3 weeks and commenced growing rapidly. Animals were divided into two groups. […] The other group was treated with saline vehicle. Changes in the tumor size and body weight were recorded daily.
# [2] = cited from earlier work
# LNCAP cells = experiment: LNCAP cell viability assay (AlamarBlue); format: cell-based; conditions: for Effect on LNCAP cell viability: 48 hours incubation, % of fluorescence of vehicle treated cells
# Method: LNCAP cells were plated in 96 well plates at 1-2×10^4 cells/well. The cells were incubated with PBS with glycine containing albumin (1.25 mg/ml) in the presence of different concentrations of a NMDAR receptor antagonist, MK-801 (also known as dizocilpine) or memantine, dilutions of the anti-NMDAR1 antisera described in Example 1 or anti-NMDAR1 IgG isolated from such antisera, or vehicle only. Each group was run in quadruplicate. AlamarBlue® was later added to each well following an incubation period of 48 hours, and fluorescent readings were taken with excitation at 530-560 nm and emission at 590 nm and above on a SYNERGY™ HT Multi Detection Reader to (BioTek®). Cell viability (%) was calculated as % of fluorescence of vehicle treated cells at 48 hours.
# NCI H82 cells [3] = experiment: In vivo combination treatment of NCI H82 tumors in nu/nu mice: cyclophosphamide followed by ifenprodil; conditions: cyclophosphamide 75 mg/kg body weight daily for 3 days
# Method: Anti-cancer agent: Cyclophosphamide, an alkylating agent, was used as an exemplary anti-cancer agent.
# as §1
# Mouse treatment: Male nu/nu mice were injected subcutaneously with NCI H82 cells (about 10^7 cells/mouse). […] Animals were divided into two groups. […] The other group was treated with saline vehicle. Changes in the tumor size were recorded daily.
# [4] = target: T1, NMDAR2B immunogen peptide, free …; experiment: competition ELISA against peptide coupled to biotinylated BSA
# Method: (§2) ELISA assay: 96 well plates (ELISA Microlon 66 (Greiner Bio-one); #655061) were coated with Affinipure anti-human IgG antibodies (which bind to Fabs) (Jackson Immunoresearch Laboratories; #109-005-0060). Each well was added with a 50 μl volume containing 5 ng or 10 ng of an appropriate Fab and another […] volume containing the NMDAR2B immunogen peptide in a range of 10 μg to 10 ng, followed by incubation at 4° C. for 24-48 hours. Plates were washed, and each well was incubated with the biotinylated peptide at 100 ng/ml for 30 minutes to one hour and then with HRP-conjugated streptavidin (Thermo Industries; Product #N100) was added at 1:10,000 dilution for 30 minutes. Plates were washed and incubated with a mixture of 0.007% H₂O₂ and Amplex® Ultrared Reagent (Molecular Probes) for one hour, and fluorescence was read at excitation at 550 nm and fluorescence at 590 nm on a SYNERGY™ HT Multi Detection Reader to (BioTek®).
# ELISA assay: ELISA as in Example 6 was performed using the NMDAR2B immunogen peptide coupled to biotinylated BSA and then, to test competition, the free NMDAR2B immunogen peptide.
# [5] = target: T2, Biotinylated NMDAR2B immunogen peptide; experiment: ELISA, Fab captured on anti-human IgG, streptavidin-HRP detection
# Method: as §2
# [6] = target: T3, 125I-labeled NMDAR2B immunogen peptide; experiment: radioimmunoassay with 125I-labeled and free peptide
# Method: Radioimmunoassay: Radioimmunoassay on Fab3 through Fab10 was performed using ¹²⁵I-labeled (radiolabel on the N-terminal tyrosine) and free (no radiolabel or additional conjugation) NMDAR2B immunogen peptides.
# [7] = target: T4, BSA-coupled NMDAR2B immunogen peptide (human; bovine, UniProt P02769 25-607, carrier, cross-linked to the peptide with glutaraldehyde; C-terminal amide; coupled to BSA with glutaraldehyde); experiment: competition displacement ELISA, additional studies (FIG. 7B)
# T4 construct: also called NMDAR2B immunogen peptide coupled to BSA; unlabeled BSA-coupled NMDAR2B immunogen peptide
# T4 sequence (P02769 25-607 limits assumed): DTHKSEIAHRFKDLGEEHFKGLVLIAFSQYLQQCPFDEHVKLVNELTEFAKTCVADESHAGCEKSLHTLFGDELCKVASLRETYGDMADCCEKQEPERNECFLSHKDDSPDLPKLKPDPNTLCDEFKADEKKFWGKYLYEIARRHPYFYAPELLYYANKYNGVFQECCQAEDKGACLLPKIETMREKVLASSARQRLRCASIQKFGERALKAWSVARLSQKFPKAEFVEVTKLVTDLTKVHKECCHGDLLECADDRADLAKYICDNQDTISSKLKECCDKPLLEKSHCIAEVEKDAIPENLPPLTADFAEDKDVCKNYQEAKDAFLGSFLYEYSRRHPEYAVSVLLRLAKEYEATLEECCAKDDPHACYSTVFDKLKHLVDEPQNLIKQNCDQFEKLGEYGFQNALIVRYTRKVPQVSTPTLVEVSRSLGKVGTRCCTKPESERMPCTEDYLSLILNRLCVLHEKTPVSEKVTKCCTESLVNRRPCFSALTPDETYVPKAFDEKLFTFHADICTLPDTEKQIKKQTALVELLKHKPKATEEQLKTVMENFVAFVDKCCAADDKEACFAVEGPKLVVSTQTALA
# Method: as §2
# ELISA assay: ELISA as in Example 6 was performed using the NMDAR2B immunogen peptide coupled to BSA (as prepared in Example 4) and the NMDAR2B immunogen peptide coupled to biotinylated BSA (as prepared in Example 7). Competition displacement curves were generated as repeated points in quadruplicate, and dissociation constants for respective Fabs to the BSA-coupled NMDAR2B immunogen peptide were calculated.
Molecule,binding result [4],binding result [5],binding result [6],further results
CC(C(O)c1ccc(O)cc1)N1CCC(Cc2ccccc2)CC1 (centres unmarked) [ifenprodil],–,–,–,"Tumor growth with ifenprodil alone (NCI H82 cells [1]; animals that only received ifenprodil but not cyclophosphamide, after a day of decrease in size): continued to grow; Time for tumors to grow back to their original size (NCI H82 cells [1]; ifenprodil 2.5 mg/kg body weight intraperitoneally once daily): about 10 days; Tumor growth relative to original size (NCI H82 cells [1]; ifenprodil 2.5 mg/kg body weight intraperitoneally once daily, by two weeks of treatment, saline controls >6 times): < 2 times their original size; Tumor size relative to original size after initial shrinkage (NCI H82 cells [1]; ifenprodil 2.5 mg/kg body weight intraperitoneally once daily, in about a day): about 80%; Body weight versus saline control (NCI H82 cells [1]; over 8 days of treatment): no differences between groups; ED50 in mice [2]: about 350 mg/kg body weight"
CC12CC3CC(C)(C1)CC(N)(C3)C2 [memantine],–,–,–,Effect on LNCAP cell viability (LNCAP cells): reduced cell viability in a does-dependent manner
O=P1(N(CCCl)CCCl)NCCCO1 (centres unmarked) [cyclophosphamide],–,–,–,Effect of cyclophosphamide treatment on tumor growth (NCI H82 cells [3]): does not inhibit tumor growth beyond the time of cyclophosphamide administration; also recorded: slowed but did not stop tumor growth
"C[C@]12N[C@H](Cc3ccccc31)c1ccccc12 [MK-801, dizocilpine]",–,–,–,"Effect on LNCAP cell viability (LNCAP cells): reduced cell viability in a does-dependent manner; Concentration at which the reduction of cell viability was statistically significant (p<0.01) (LNCAP cells; LNCAP cells, 48 hours): > 300 pM"
B1,no binding,no binding,no binding,–
B2,no binding,no binding,no binding,–
B3,no binding,no binding,no binding,–
B4,no binding,no binding,no binding,–
B5,no binding,no binding,no binding,–
B6,no binding,no binding,no binding,Kd [7]: ~5 nM
B7,no binding,no binding,no binding,–
